# B1: human Histamine-Releasing Factor (natural protein, UniProt P13693 1-172, looked up)
# chain: MIIYRDLISHDEMFSDIYKIREIADGLCLEVEGKMVSRTEGNIDDSLIGGNASAEGPEGEGTESTVITGVDIVMNHHLQETSFTKEAYKKYIKDYMKSIKGKLEEQRPERVKPFMTGAAEQIKHILANFKNYQFFIGENMNPDGMVALLDYREDGVTPYMIFFKDGLEMEKC
# notes: Histamine-Releasing Factor (HRF/TCTP), human, wild type; Met1 to Cys172, followed by the C-terminal purification tag Leu173-His180; The tag is ordered in the crystals and contributes about 25% of the hHRF-2 dimer interface; In hHRF-2 the two chains are joined by an intermolecular disulphide bond Cys172-Cys172; also called hHRF; HRF; source: prepared according to a previously described protocol …
# Molecular target: the molecule itself
# Experiment: crystal structure; hHRF-2 crystal form, 1.4 Å; crystals grown at 18 °C in 0.1 M MES pH6.0 and 20% (w/v) PEG 2000 MME; two molecules in the asymmetric unit, disulphide-linked dimer
protein,measurement,value
B1,stoichiometry N,2

# — publication PMC5966295, “Crystal structures of murine and human Histamine-Releasing Factor (HRF/TCTP) and a model for HRF dimerisation in mast cell activation” (Molecular Immunology, 2018)
